From patent publication US20180038857A1 (published 2018)
Bridge positions count the residues as written; N and C are the ends. * marks the point of attachment. Biotin = O=C1N[C@H]2[C@H](CS[C@H]2CCCCC(=O)*)N1

Assays:
Assay in all cases: cell depletion on chemokine-streptavidin Sepharose column, flow cytometry for CCR1, 3 and 5-expressing cells
hCCR3 = target: T1, hCCR3 (human, UniProt P51677 1-355)
T1 construct: whole, on cells
T1 sequence (looked up): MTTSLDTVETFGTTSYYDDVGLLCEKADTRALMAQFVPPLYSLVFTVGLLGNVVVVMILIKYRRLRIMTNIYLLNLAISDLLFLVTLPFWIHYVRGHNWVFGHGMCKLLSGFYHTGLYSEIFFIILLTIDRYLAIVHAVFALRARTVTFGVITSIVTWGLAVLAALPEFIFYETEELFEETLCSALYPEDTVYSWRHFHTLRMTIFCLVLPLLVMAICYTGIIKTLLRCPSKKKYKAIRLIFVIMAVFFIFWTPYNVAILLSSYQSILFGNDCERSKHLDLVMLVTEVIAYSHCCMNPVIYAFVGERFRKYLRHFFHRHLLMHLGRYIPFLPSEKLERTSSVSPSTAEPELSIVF
Experimental: (§1) To investigate the ability to eliminate CCR1, 3 and 5-expressing cells, in vitro tests have been performed on the biotinylated RANTES coupled matrix. Blood was collected from blood donors and passed through the column device containing biotinylated RANTES coupled matrix. Blood samples were taken before and after column passage and analyzed by flow cytometry (FACS) for the depletion of CCR1, 3 and 5-expressing cells.
(§2) Depletion tests were performed on blood from a healthy donor.

CCR1 = target: T2, CCR1 (human, UniProt P32246 1-355)
T2 construct: whole, on cells; Endogenous receptor on blood cells in the RANTES depletion test
T2 sequence (looked up): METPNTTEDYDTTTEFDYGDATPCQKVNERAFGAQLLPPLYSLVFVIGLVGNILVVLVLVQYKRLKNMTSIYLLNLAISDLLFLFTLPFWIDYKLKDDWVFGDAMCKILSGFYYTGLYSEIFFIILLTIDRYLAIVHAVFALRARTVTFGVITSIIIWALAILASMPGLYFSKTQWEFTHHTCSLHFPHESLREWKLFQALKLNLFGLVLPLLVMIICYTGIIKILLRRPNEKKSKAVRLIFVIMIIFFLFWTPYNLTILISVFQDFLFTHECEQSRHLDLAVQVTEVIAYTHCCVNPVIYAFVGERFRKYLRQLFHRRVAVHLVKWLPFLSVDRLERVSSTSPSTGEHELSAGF
Experimental: as §1, §2

hCCR5 = target: T3, hCCR5 (human, UniProt P51681 1-352)
T3 construct: whole, on cells
T3 sequence (P51681 whole entry): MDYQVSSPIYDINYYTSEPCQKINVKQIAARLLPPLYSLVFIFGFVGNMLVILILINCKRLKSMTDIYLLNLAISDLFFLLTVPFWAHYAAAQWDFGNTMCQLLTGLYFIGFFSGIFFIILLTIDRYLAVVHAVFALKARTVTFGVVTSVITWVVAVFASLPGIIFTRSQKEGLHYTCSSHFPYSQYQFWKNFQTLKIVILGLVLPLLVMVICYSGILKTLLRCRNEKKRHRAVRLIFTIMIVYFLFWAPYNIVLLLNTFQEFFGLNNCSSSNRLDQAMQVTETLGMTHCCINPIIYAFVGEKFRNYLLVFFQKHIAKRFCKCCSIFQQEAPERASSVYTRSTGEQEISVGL
Experimental: as §1, §2

Measured: reduction of chemokine receptor-expressing cells by the column

B1: biotinRANTES (CCL5): RANTES derivatised at the ε-amino side chain functionality of Lys(67) with Biotin (ligand)
chain: H-SPYSSDTTPCCFAYIARPLPRAHIKEYFYTSGKCSNPAVVFVTRKNRQVCANPEKKWVREYINSLEK(Biotin)S-OH
modifications: disulfide 10-34, 11-50; also: TFA salt
notes: It is treated here as the same molecule; also called biotinylated RANTES
~20%: hCCR3 | CCR1 | hCCR5
